{"source": "paper PMC6535718", "about": "(2019)", "target": "T1, Bfd (Pseudomonas aeruginosa, UniProt Q9HY80)", "T1 chain": "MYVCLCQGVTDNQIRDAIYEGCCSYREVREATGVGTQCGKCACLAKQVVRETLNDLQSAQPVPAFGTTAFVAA", "assay": "SPR", "data": [{"binder": "BfrB (protein, apo-BfrB (heme-free)) not shown", "values": [{"measurement": "Kd", "result": 3.1, "unit": "µM"}]}]}
